Data taken from paper PMC6589827 (Biochemistry, 2019).

What was measured:
[1] = ITC titration of folate into the crowders; format: binding
hemoglobin = settings: read-out: Kd of folate for central cavity of hemoglobin; cited from earlier work
R67 DHFR-NADP^+ = R67 DHFR-NADP^+ (Escherichia coli, UniProt P00383); test: ITC, DHF binding to binary complex of R67 DHFR and NADP+
EcDHFR = EcDHFR (Escherichia coli, UniProt P0ABQ4); settings: for decrease of kcat, DHF reduction by EcDHFR: crowder at 50 mg/mL
EcDHFR, sequence (P0ABQ4 whole entry): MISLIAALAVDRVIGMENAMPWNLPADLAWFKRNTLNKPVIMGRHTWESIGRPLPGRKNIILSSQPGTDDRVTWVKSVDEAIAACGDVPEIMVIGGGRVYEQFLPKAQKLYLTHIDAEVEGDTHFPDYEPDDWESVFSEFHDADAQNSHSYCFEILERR

apo-EcDHFR = apo-EcDHFR (Escherichia coli, UniProt P0ABQ4); test: ITC, NADP+ binding to apo-EcDHFR; set-up: species or system E. coli
apo-EcDHFR, sequence (P0ABQ4 whole entry): as above

R67 DHFR = R67 DHFR (Escherichia coli, UniProt P00383); test: Progress curve kinetics, reduction of DHF by R67 DHFR; format: biochemical; settings: saturating NADPH, progress curves
R67 DHFR, sequence (P00383 whole entry): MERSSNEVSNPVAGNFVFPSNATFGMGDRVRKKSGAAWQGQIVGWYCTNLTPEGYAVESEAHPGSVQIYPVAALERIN

R67 DHFR-NADP^+, sequence (P00383 whole entry): as above

## Nc1nc(=O)c2nc(CNc3ccc(C(=O)N[C@@H](CCC(=O)O)C(=O)O)cc3)cnc2[nH]1 [folate]
[1]
  heat of binding on titration into the crowders: no heat of binding
hemoglobin
  Kd: ~1000 µM

## Hemoglobin: bovine hemoglobin, 64,500 Da, protein crowder
R67 DHFR-NADP^+; crowder at 50 mg/mL
  weakening of R67 DHFR affinity for DHF: 5.5 fold

## casein
EcDHFR; over the range of concentrations used
  effect on kcat, DHF reduction by EcDHFR: did not alter the kcat

## lysozyme: hen egg-white lysozyme, 14,300 Da, protein crowder
EcDHFR
  decrease of kcat, DHF reduction by EcDHFR: about 60%
apo-EcDHFR; crowder at 50 mg/mL
  decrease of affinity of NADP^+ for EcDHFR: 5 fold
R67 DHFR
  effect on efficiency (kcat/KM) of R67 DHFR reduction of DHF: increases the efficiency

B1: ovalbumin: protein crowder isolated from fresh eggs (protein, UniProt P01012 2-386, looked up)
Ovalbumin: GSIGAASMEFCFDVFKELKVHHANENIFYCPIAIMSALAMVYLGAKDSTRTQINKVVRFDKLPGFGDSIEAQCGTSVNVHSSLRDILNQITKPNDVYSFSLASRLYAEERYPILPEYLQCVKELYRGGLEPINFQTAADQARELINSWVESQTNGIIRNVLQPSSVDSQTAMVLVNAIVFKGLWEKAFKDEDTQAMPFRVTEQESKPVQMMYQIGLFRVASMASEKMKILELPFASGTMSMLVLLPDEVSGLEQLESIINFEKLTEWTSSNVMEERKIKVYLPRMKMEEKYNLTSVLMAMGITDVFSSSANLSGISSAESLKISQAVHAAHAEINEAGREVVGSAEAGVDAASVSEEFRADHPFLFCIKHIATNAVLFFGRCVSP
EcDHFR
  decrease of kcat, DHF reduction by EcDHFR: about 60%
apo-EcDHFR; over the concentration ranges used (up to 150 mg/mL with PVP-55)
  effect on affinity of NADP^+ for apo-EcDHFR: no effect on affinity
R67 DHFR-NADP^+; crowder added, ITC
  effect on the affinity of R67 DHFR for DHF: little effect
